Assay results taken from patent publication US20020061531.

Key:
[1] = system: anti-BPDE-DNA monoclonal antibody 8E11 (Mus musculus); settings: single (+/-)-anti-BPDE-N2-dG adduct in the SEQ:5 segment; CE/LIF; complex formation with native duplex, 20 ug/mL (printed mg/mL) 8E11
[2] = system: anti-BPDE-DNA monoclonal antibody 5D11 (Mus musculus); settings: slight cross-reaction at 20 ug/mL 5D11

Sequence	binding signal (fold lower than denatured) [1]	binding signal (% of total peak area) [2]
CCTTAAGCTTCCTCAACCACTTACCATACTCGAGATTCCCATTATGCATAACCGTCATATGCCGCCTCTGACCTTCCTAGAATTCCATCC (double strand) [TMR-BPDE-90-mer, native duplex]	6	–
CCTTAAGCTTCCTCAACCACTTACCATACTCGAGATTCCCATTATGCATAACCGTCATATGCCGCCTCTGACCTTCCTAGAATTCCATCC [TMR control 90-mer (no BPDE), heat-denatured]	–	2.1
